Patent publication US20210403583A1 (ELIXIRON IMMUNOTHERAPEUTICS HONG KONG, published 2021)
Positions count from the first letter of the chain named. Like-named read-outs stand apart in the source and are kept apart here. Each block holds one binder with its values, some of them ahead of it.

Key:
[1] = target: T1, human CSF1R expressed on cells (293F/huCSF1R stable cells; AML5 cells; human monocytes and macrophages) (human, UniProt P07333 20-972); assay: cell-based or functional assay
[2] = target: T2, recombinant human CSF1R-Fc fusion protein (human, UniProt P07333 20-512); assay: ELISA, coated human CSF1R-Fc (dimer)
T2 construct: probably the same protein; also called CSF1R-Fc (dimer); not shown: Fc part
Experimental: (§1) Materials and methods: Recombinant human CSF1R-His (Biolegend), or CSF1R-Fc fusion protein, were immobilized on 96 well microtiter plate at a concentration of 1 μg/mL in Coating Solution (SeraCare) overnight at 4° C. The wells were washed with wash solution (0.05% Tween20 in imidazole-buffered saline) and blocked with 1% BSA. Serial dilutions of the antibodies were added to wells. After incubation at 3TC for 1 h, the wells were washed with wash solution. Peroxidase-conjugated goat anti-human kappa light chain antibody (Bethyl) was applied to each well at 3TC for 1 h incubation. After washing, the wells were developed with TMB substrate for 5-10 min at RT and then stopped with 1 N HCl. Thereafter absorbance was measured at 450 nm and 650 nm. The EC50 values were calculated through GraphPad Prism7.

[3] = target: T3, recombinant human CSF1R-His (Biolegend) (human, UniProt P07333 20-512, limits assumed); assay: ELISA, coated human CSF1R-His (monomer)
T3 construct: Bought protein; also called CSF1R-His (monomer); hu-CSF1R; not shown: His tag
Experimental: as §1

[4] = target: T1, human CSF1R expressed on cells …; assay: cell-based or functional assay; remark: listed apart in the source
[5] = target: T1, human CSF1R expressed on cells …; assay: cell-based or functional assay; remark: listed apart in the source
[6] = target: T2, recombinant human CSF1R-Fc fusion …; assay: ELISA, coated human CSF1R-Fc
Experimental: Materials and methods: Recombinant human CSF1R-Fc, or mouse CSF1R-Fc (Sino Biological) were immobilized on 96 well microtiter plate at a concentration of 1 μg/mL in Coating Solution (SeraCare) overnight at 4° C. The wells were washed with wash solution (0.05% Tween20 in imidazole-buffered saline) and blocked with 1% BSA. Serial dilutions of the anti-CSF1R/IL-10 fusion proteins were added to wells. After incubation at 3TC for 1 h, the wells were washed with wash solution. To detect chimeric Ab/IL10 fusions, peroxidase-conjugated goat anti-human kappa light chain antibody (Bethyl) was applied to each well at 3TC for 1 h incubation. To detect AB98 or AB98/1110 fusions, peroxidase-conjugated Goat anti-mouse IgG Fab antibody (Jackson immunoresearch) was applied to each well at 3TC for 1 h incubation. After washing, the wells were developed with TMB substrate for 5-10 min at RT and then stopped with 1 N HCl. Thereafter absorbance was measured at 450 nm and 650 nm.

[7] = target: T4, cynomolgus CSF1R expressed on 293F cells (cynomolgus monkey, UniProt P07333 20-972 (human entry)); assay: flow cytometry titration on 293F cells overexpressing cynomolgus CSF1R, anti-human IgG-Alexa Fluor 647
T4 construct: also called cynoCSF1R
T4 chain: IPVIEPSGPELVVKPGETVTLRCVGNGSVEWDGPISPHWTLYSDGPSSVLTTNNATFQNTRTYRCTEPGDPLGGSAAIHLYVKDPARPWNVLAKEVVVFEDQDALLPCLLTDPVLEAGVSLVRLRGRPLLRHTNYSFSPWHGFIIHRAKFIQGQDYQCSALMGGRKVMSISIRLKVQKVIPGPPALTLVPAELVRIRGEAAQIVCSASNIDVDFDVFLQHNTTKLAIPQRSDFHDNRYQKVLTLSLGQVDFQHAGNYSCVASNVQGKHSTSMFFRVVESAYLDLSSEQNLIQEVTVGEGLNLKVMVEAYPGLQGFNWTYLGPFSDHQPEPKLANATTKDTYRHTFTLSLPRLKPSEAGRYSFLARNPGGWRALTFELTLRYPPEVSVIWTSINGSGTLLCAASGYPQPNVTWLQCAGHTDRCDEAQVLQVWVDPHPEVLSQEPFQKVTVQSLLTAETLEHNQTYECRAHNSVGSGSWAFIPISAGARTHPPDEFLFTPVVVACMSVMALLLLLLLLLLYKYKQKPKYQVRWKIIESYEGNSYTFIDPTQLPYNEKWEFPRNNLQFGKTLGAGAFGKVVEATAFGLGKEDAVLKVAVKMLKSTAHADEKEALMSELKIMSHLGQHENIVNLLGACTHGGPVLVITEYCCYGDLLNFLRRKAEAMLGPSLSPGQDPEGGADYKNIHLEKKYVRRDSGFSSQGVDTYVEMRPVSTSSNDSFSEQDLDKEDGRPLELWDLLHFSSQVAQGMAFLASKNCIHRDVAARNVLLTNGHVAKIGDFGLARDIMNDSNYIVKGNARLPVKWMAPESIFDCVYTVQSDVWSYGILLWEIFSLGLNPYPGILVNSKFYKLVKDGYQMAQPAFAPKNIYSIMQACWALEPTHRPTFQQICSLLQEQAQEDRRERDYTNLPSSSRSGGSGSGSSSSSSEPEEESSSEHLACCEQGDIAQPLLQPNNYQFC
Description: Materials and methods: The gene segments encoding full-length human CSF1R or cynomolgus CSF1R were obtained using Thermo gene synthesis service and cloned in a mammalian expression vector pCDNA3.4. […] After washing with FACS buffer (2%FBS in PBS), the cells were stained with anti-human IgG-Alexa Fluor 647 and analyzed by Attune N×T Flow Cytometer (Thermo Scientific).

[8] = target: T2, recombinant human CSF1R-Fc fusion …; assay: ELISA, coated human CSF1R-Fc (dimer); remark: listed apart in the source
Experimental: as §1, with “protein” for “protein,”, “Hybridoma culture supernatants or serial” for “Serial”, “of” for “of the”, “37° C.” for “3TC”, “EC₅₀” for “EC50”

[9] = target: T3, recombinant human CSF1R-His (Biolegend); assay: ELISA, coated human CSF1R-His (monomer); remark: listed apart in the source
Experimental: as §1, with “protein” for “protein,”, “Hybridoma culture supernatants or serial” for “Serial”, “of” for “of the”, “37° C.” for “3TC”, “EC₅₀” for “EC50”

[10] = target: T2, recombinant human CSF1R-Fc fusion …; assay: competition ELISA, coated human CSF1R-Fc, competitor biotinylated CSF1-His 2.5 ug/mL
Experimental: Materials and methods: Recombinant human CSF1R-Fc fusion protein was immobilized on 96 well microtiter plate at a concentration of 1 μg/mL in Coating Solution (SeraCare) overnight at 4° C. The wells were washed with wash solution and blocked with 1% BSA at RT. Serial dilutions of the antibodies were added to wells. Then 2.5 ug/mL biotinylated CSF1-His (Biolegend) was added and incubated for 1 h at 37° C. After washing, Streptavidin-HRP (Jackson ImmunoResearch) was applied to wells at RT for 1 h incubation. After washing, the wells were developed with TMB substrate for 5-10 min at RT and the stopped with 1 N HCl. Thereafter absorbance was measured at 450 nm and 650 nm. The IC₅₀ values were calculated through GraphPad Prism7.

[11] = target: T1, human CSF1R expressed on cells …; assay: cell-based or functional assay; remark: listed apart in the source
[12] = target: T1, human CSF1R expressed on cells …; assay: cell-based or functional assay; remark: listed apart in the source
[13] = target: T3, recombinant human CSF1R-His (Biolegend); assay: BLI (Octet RED96), antibody captured on AHC biosensor, CSF1R-His in solution, 1:1 model
Experimental: Kinetic rate constants, ka and kd, for binding of 6D4 and 6M6 to CSF1R were measured by Bio-Layer Interferometry (BLI) (ForteBio Octet RED96). The BLI assay was performed using AHC (Anti-hIgG Fc Capture) biosensors (ForteBio) to capture each anti-CSF1R antibody (2 μg/mL) to acquire a 0.5 nm shift and then the biosensors were dipped into varying concentrations (i.e. 0, 0.549, 1.65, 4.94, 14.8, 44.4, 133.3 and 400 nM) of recombinant CSF1R-His protein in running buffer containing PBS-Tween 20 (0.1%), BSA (0.1%). Rate constants were calculated by curve fitting analyses (1:1 Langmuir model) of binding response with a 5-minute association and 15-minute dissociation interaction time.

T3 sequence (P07333 20-512 limits assumed): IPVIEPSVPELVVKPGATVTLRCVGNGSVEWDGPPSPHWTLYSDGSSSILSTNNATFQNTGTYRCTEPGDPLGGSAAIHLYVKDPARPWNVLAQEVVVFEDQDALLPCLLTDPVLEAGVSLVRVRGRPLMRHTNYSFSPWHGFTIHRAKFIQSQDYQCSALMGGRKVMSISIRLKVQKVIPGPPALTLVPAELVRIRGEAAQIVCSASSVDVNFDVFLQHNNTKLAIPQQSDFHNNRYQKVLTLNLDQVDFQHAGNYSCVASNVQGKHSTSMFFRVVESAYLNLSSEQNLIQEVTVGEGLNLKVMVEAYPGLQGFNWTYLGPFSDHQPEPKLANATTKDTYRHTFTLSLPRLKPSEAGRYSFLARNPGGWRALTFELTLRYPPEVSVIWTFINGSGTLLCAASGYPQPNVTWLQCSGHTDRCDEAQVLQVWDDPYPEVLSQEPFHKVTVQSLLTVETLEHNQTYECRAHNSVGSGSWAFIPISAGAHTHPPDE
T2 sequence (P07333 20-512 limits assumed): as above

IC50 (M), CSF1-dependent AML5 cell proliferation [1]: 5.46e-10 M | EC50 [2]: 0.0613 nM | EC50 [3]: 0.103 nM
B1: humanized anti-CSF1R antibody 6M6.hu12 (antibody, human IgG1, kappa)
heavy: not shown
light: DIVLTQSPDSLAVSLGERATINCKASQGVDYAGDSYMNWYQQKPGQPPKLLIYVASDLDSGIPDRFSGSGSGTDFTLTISSLQAEDVATYYCQQSYEDPRTFGGGTTLEIKRTVAAPSVFIFPPSDEQLKSGTASVVCLLNNFYPREAKVQWKVDNALQSGNSQESVTEQDSKDSTYSLSSTLTLSKADYEKHKVYACEVTHQGLSSPVTKSFNRGEC
notes: Humanized version of 6M6; also called 6M6.hul2

IC50 (M), inhibition of AML5 cell proliferation (CSF1-dependent) [4]: 1.61e-09 M | EC50 [6]: 0.252 nM | binding result [7]: binds
B2: humanized anti-CSF1R/IL10 fusion protein 6M6.hu12/IL10 (antibody, human IgG1, kappa)
heavy: not shown
light: B1 light
notes: Antibody-cytokine fusion: human IL10 fused by a linker to the C-terminus of the heavy chain
IC50 (M), inhibition of macrophage survival (CSF1-dependent) [5]: 1.49e-10 M

IC50 (M), CSF1-dependent AML5 cell proliferation [1]: 4.3e-10 M | EC50 [2]: 0.065 nM | EC50 [3]: 0.107 nM
B3: humanized anti-CSF1R antibody 6M6.hu41 (antibody, human IgG1, kappa)
heavy: not shown
light: B1 light with I62V
notes: Humanized version of 6M6

IC50 (M), inhibition of AML5 cell proliferation (CSF1-dependent) [4]: 8.93e-10 M | EC50 [6]: 0.205 nM | binding result [7]: binds
B4: humanized anti-CSF1R/IL10 fusion protein 6M6.hu41/IL10 (antibody, human IgG1, kappa)
heavy: not shown
light: B1 light with I62V
notes: Antibody-cytokine fusion: human IL10 fused by a linker to the C-terminus of the heavy chain; also called 6M6.hu41/1L10
IC50 (M), inhibition of macrophage survival (CSF1-dependent) [5]: 1.84e-10 M

EC50 [8]: 0.381 nM | EC50 [9]: 0.531 nM | IC50 [10]: 1.76 nM
B5: hy6D4 (antibody, V domains shown)
VH: EIQLQQSGAELVKPRASVKISCEASGYSFTGYNMNWVKQSPGKSLEWIGDINPYYGATTYNQKFKGKATLTVDKSSSTAYMQLNSLTSEDSAVYYCARRGDYGDYEGWYFDVWGAGTTVTVSS
VL: DIQMNQSPSSLSASLGDTITITCHASQNINVWLSWYQQKPGNIPKLLIYKASNLHTGVPSRFSGSGSGTGFTLTISSLQPEDIATYYCQQGQSYPYTFGGGTKLEIK
notes: Mouse hybridoma antibody; also called anti-CSF1R antibody purified from hybridoma supernatant hy6D4

EC50 [8]: 0.0653 nM | EC50 [9]: 0.112 nM | IC50 [10]: 1.04 nM
B6: hy6M6 (antibody, V domains shown)
VH: DVQLQQSGTVLARPGASVKMSCKASGYTFTSYWIHWVKQRPGQGLEWIGAIYPGNRDTNYNQKFKGKAKLTTVTSASTAYMELSSLTNEDSAVYYCTGAFAGYYDWYFDVWGAGTTVTVSS
VL: DIVLTQSPASLAVSLGQRATISCKASQGVDYAGDSYMNWYQQKPGQPPKLLIYVASDLDSGIPARFSGSGSGTNFTLNIHPVEEEDAATYYCQQSYEDPRTFGGGTTLEIQ
notes: Mouse hybridoma antibody; also called anti-CSF1R antibody purified from hybridoma supernatant hy6M6

IC50 (M), CSF1-dependent AML5 cell proliferation [11]: 4.62e-10 M | IC50 (M), IL-34-dependent AML5 cell proliferation [11]: 3.49e-10 M | IC50 (M), CSF1-dependent AML5 cell proliferation [1]: 4.62e-10 M | EC50 [2]: 0.381 nM | EC50 [3]: 0.531 nM | Kd [13]: 3.42 nM | koff [13]: 0.000946 s⁻¹ | kon [13]: 277000 M⁻¹ s⁻¹
B7: chimeric anti-CSF1R antibody 6D4 (antibody, human IgG1, kappa)
heavy: not shown
light: DIQMNQSPSSLSASLGDTITITCHASQNINVWLSWYQQKPGNIPKLLIYKASNLHTGVPSRFSGSGSGTGFTLTISSLQPEDIATYYCQQGQSYPYTFGGGTKLEIKRTVAAPSVFIFPPSDEQLKSGTASVVCLLNNFYPREAKVQWKVDNALQSGNSQESVTEQDSKDSTYSLSSTLTLSKADYEKHKVYACEVTHQGLSSPVTKSFNRGEC
IC50 (M), CSF1-dependent survival of CD14+ monocytes [12]: 5.58e-10 M | IC50 (M), CSF1-dependent survival of macrophages [12]: 1.38e-10 M
